Test results taken from patent US20130115677.

Key:
Test in all cases: cleavage_in_vitro
[1] = biological target: T1, BamHI-HF E163A/E167T (Bacillus amyloliquefaciens) (UniProt P23940); settings: NEB4, 37 C, Mg2+
T1 sequence: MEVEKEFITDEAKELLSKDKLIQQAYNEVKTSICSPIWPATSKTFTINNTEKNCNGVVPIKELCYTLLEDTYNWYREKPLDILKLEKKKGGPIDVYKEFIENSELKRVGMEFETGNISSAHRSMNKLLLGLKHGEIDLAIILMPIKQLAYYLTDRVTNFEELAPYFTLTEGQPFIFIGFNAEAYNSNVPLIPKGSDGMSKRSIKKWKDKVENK

BstXI-HF N65A = settings: NEB4, 55 C, Mg2+
[2] = biological target: EcoRI (Escherichia coli RY13) (UniProt P00642); settings: NEB4, 37 C, Mg2+; 250 in NEB1 and NEB3
[3] = biological target: EcoRI-HF K62E (Escherichia coli RY13) (UniProt P00642); settings: NEB4, 37 C, Mg2+
[4] = biological target: T2, HindIII (Haemophilus influenzae Rd) (UniProt P43870); settings: NEB4, 37 C, Mg2+
T2 sequence: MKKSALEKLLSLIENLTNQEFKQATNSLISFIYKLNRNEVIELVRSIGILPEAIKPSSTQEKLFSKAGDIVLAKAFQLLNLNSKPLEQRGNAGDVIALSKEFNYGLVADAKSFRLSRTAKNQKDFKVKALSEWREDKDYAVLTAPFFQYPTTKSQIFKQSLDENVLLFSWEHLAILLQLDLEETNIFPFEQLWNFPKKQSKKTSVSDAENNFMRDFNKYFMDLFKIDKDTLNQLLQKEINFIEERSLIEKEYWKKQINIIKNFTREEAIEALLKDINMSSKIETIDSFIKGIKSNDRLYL

[5] = test system: T3, NcoI (Nocardia corallina); settings: NEB4, 37 C, Mg2+
T3 sequence: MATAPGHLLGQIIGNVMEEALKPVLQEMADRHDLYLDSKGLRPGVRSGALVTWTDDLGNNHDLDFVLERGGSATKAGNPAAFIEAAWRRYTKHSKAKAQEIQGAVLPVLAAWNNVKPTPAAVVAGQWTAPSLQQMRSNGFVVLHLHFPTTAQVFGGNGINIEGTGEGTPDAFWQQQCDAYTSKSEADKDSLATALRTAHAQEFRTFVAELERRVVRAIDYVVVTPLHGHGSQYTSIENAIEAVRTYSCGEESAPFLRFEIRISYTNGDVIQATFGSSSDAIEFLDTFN

[6] = biological target: T4, PstI-HF D91A (Providencia stuartii 164) (UniProt P00640); settings: NEB4, 37 C, Mg2+
T4 sequence: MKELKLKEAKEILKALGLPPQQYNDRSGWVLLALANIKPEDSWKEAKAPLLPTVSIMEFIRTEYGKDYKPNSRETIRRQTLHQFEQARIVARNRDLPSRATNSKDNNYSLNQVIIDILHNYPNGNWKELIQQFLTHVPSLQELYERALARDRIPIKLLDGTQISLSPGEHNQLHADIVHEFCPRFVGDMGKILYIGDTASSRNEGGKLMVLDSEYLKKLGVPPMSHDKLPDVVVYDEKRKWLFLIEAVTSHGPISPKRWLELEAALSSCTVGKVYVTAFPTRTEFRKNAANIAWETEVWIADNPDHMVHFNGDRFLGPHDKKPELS

[7] = test system: T5, SapI (Saccharopolyspora sp.); settings: NEB4, 37 C, Mg2+
T5 sequence: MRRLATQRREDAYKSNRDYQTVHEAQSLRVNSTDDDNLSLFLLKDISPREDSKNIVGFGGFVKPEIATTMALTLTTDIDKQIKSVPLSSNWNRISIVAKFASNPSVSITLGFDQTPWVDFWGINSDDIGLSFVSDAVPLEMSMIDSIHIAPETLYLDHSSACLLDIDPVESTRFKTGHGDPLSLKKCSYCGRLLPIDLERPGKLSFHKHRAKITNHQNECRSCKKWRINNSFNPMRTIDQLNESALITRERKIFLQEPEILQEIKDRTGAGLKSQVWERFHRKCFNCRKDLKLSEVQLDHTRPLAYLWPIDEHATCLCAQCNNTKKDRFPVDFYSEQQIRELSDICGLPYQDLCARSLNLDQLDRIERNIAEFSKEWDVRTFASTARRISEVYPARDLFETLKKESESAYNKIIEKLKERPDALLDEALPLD

[8] = test system: T6, SbfI-HF K251A (Streptomyces species Bf-61?); settings: NEB4, 37 C, Mg2+
T6 sequence: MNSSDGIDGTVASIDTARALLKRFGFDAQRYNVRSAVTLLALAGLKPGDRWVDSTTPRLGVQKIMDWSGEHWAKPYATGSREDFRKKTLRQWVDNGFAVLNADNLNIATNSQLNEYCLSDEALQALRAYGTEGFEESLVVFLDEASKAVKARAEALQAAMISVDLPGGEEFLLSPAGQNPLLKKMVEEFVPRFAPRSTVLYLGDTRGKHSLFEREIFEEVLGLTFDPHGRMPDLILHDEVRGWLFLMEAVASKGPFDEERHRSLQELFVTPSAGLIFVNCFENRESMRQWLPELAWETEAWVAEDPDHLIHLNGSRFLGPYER

[9] = biological target: T7, ScaI-HF H193A/S201F (Streptomyces caespitosus) (UniProt O52691); settings: NEB4, 37 C, Mg2+
T7 sequence: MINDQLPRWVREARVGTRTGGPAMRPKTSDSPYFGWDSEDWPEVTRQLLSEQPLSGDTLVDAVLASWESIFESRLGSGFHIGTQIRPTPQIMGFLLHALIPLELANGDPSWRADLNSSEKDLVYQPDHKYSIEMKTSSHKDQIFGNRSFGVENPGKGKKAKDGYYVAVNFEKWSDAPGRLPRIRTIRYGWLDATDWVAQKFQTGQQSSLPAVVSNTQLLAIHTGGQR

[10] = test system: T8, SphI (Streptomyces phaeochromogenes); settings: NEB4, 37 C, Mg2+
T8 sequence: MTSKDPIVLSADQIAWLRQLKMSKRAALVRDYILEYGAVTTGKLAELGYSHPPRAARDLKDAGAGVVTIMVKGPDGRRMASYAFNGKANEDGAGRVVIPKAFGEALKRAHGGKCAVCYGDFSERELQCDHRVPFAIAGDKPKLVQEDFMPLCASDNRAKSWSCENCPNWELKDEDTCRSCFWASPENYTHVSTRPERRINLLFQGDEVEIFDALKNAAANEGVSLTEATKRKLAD

[11] = test system: T9, SspI (Sphaerotilus species); settings: NEB4, 37 C, Mg2+
T9 sequence: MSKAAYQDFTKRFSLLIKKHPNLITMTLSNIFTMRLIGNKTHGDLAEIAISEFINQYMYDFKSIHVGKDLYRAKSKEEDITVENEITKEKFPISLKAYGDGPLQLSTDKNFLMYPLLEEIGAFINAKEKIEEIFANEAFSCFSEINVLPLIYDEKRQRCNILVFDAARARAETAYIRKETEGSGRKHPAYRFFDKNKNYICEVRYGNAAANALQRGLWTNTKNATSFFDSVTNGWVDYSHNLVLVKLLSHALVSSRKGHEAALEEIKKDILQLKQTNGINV

## lambda DNA
[1]
  activity (fidelity index): > 4000
BstXI-HF N65A
  activity (fidelity index): > 250
[2]
  activity (fidelity index): 4
[3]
  activity (fidelity index): 16000
[4]
  activity (fidelity index): 32
[5]
  activity (fidelity index): 32
[6]
  activity (fidelity index): 4000
[7]
  activity (fidelity index): 16
[8]
  activity (fidelity index): 250
[9]
  activity (fidelity index): 1000
[10]
  activity (fidelity index): 16
[11]
  activity (fidelity index): 16
